Values quoted from earlier work as cited in article PMC10454195.

Molecular target: GLP-1 receptor (Homo sapiens) (UniProt P43220)
UniProt P43220, sequence (P43220 24-463): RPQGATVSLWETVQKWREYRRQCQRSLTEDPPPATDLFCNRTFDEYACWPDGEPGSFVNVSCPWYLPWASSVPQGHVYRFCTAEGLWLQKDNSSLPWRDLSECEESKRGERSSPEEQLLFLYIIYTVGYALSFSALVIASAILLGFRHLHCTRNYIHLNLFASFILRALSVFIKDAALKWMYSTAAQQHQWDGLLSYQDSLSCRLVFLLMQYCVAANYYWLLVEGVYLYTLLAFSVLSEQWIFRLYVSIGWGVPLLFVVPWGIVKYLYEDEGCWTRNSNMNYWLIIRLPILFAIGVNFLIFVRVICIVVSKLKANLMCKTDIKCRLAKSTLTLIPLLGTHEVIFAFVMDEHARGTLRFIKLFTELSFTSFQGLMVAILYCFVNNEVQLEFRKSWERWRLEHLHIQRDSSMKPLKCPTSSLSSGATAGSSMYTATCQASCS

GLP-1, sequence (P01275 98-127): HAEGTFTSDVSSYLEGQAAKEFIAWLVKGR

Kd: 5 nM
Substance: GLP-1 (from UniProt P01275)
